To fix the notation:
T1: CD300c overexpressed on the surface of 293T cells and THP-1 cells (UniProt Q08708)
T1 sequence (looked up): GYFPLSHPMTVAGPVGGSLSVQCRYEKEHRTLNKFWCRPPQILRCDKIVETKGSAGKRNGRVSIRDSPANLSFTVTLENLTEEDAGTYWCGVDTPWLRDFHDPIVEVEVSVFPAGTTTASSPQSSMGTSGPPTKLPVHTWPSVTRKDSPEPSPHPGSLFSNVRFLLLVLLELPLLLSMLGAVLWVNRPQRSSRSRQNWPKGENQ

T2: CD300c抗原(11832-H08H，义翘神州) (UniProt Q08708)
T2 sequence (looked up): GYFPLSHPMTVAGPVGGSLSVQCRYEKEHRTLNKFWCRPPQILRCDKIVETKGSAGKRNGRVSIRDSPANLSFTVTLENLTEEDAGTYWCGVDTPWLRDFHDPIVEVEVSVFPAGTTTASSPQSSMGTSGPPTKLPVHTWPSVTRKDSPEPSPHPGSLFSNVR

T3: 小鼠CD300c抗原 (小鼠 (mouse))
T3 sequence (A2A7V7 whole entry, looked up): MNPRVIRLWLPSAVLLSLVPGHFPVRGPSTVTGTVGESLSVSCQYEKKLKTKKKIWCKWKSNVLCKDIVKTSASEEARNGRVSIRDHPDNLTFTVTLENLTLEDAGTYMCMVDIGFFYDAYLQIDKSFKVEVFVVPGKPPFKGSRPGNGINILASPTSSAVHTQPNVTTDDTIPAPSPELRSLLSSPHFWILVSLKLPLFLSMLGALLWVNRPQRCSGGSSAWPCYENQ

B1: 抗CD300c单克隆抗体 CL7 (antibody, from another filing, V domains shown)
VH: EVQLLESGGGLVQPGGSLRLSCAASGFTFSRYAMSWVRQAPGKGLEWVSAISGSGGSTYYADSVKGRFTISRDNSKNTLYLQMNSLRAEDTAVYYCARSSQGIFDIWGQGTLVTVSS
VL: QSVLTQPPSASGTPGQRVTISCSGNNIGTRRVHWYQQLPDTAPKLLIYSKNNRPSGVPDRFSGSKSGTSASLAISGLRSEDEADYYCAAWDDSLSGPVFGGGTKLTVL
B2: 抗CD300c单克隆抗体 SK14 (antibody, from another filing)
chain: EVQLLESGGGLVQPGGSLRLSCAASGFTFSNFAIAWVRQAPGKGLEWVSAISGRGTSTYYADSVKGRFTISRDNSKNTLYLQMNSLRAEDTAVYYCARGVSGFDSWGQGTLVTVSSGGGGSGGGGSGGGGSEIVLTQSPGTLSLSPGERATLSCRASQSISSHLAWYQQKPGQAPRLLIYDTSNRATGIPDRFSGSGSGTDFTLTISRLEPEDFAVYYCQQSYSTPFTFGQGTKVEIK
B3: 抗CD300c单克隆抗体 CK3 (antibody, from another filing, V domains shown)
VH: RVQLLESGGGLVQPGGSLRLSCAASGFTFSSYAISWVRQAPGKGLEWVSATSGSGRATYYADSVKGRFTISRDNSKNTLYLQMNSLRAEDTAVYYCARDTWWEGYFDLWGQGTLVTVSS
VL: EIVLTQSPGTLSLSPGERATLSCQASHISTHLNWYQQKPGQAPRLLIYGASSRATGIPDRFSGSGSGTDFTLTISRLEPEDFAVYYCQQYNTYPPTFGQGTKVEIK
B4: 抗CD300c单克隆抗体 CL9 (antibody, from another filing, V domains shown)
VH: B1 VH with R31S, A33Y, M34W, S99I, S100D, Q101V, G102Y, I103G
VL: QSVLTQPPSASGTPGQRVTISCSGSTSNIGTNYVYWYQQLPGTAPKLLIYDNNNRPSGVPDRFSGSKSGTSASLAISGLRSEDEADYYCQTWDSSTDVVFGGGTKLTVL
B5: 抗CD300c单克隆抗体 CL10 (antibody, from another filing, V domains shown)
VH: EVQLLESGGGLVQPGGSLRLSCAASGFTFSSYGMHWVRQAPGKGLEWVSAISGSGGSTYYADSVKGRFTISRDNSKNTLYLQMNSLRAEDTAVYYCASGYGLMDVWGQGTLVTVSS
VL: QSVLTQPPSASGTPGQRVTISCTRSSGIIASNYVQWYQQLPGTAPKLLIYRNNQRPSGVPDRFSGSKSGTSASLAISGLRSEDEADYYCSSYAGNNNLVFGGGTKLTVL
B6: 抗CD300c单克隆抗体 SK15 (antibody, from another filing, V domains shown)
VH: B5 VH with E1R, G33A, S52N, M83T, S98R, Y100L, G101Q, L102G, M103F, V105Y
VL: EIVLTQSPGTLSLSPGERATLSCQASQDITNYLNWYQQKPGQAPRLLIYDASSLETGIPDRFSGSGSGTDFTLTISRLEPEDFAVYYCQQSYSTPITFGQGTKVEIK
B7: 抗CD300c单克隆抗体 CK2 (antibody, from another filing, V domains shown)
VH: B5 VH with G56T, T58I, S98R, Y100G, G101T, L102A, M103F, V105Y
VL: B6 VL with Q24R, D28R, I29S, T30D, N34A, S53N, L54R, E55A, I96F, I106T
B8: 抗CD300c单克隆抗体 SK11 (antibody, from another filing, V domains shown)
VH: B5 VH with E1R, S31T, S98R, Y100L, G101S, L102G, M103L, V105Y
VL: B6 VL with Q24R, A25S, D28G, N34A, S53N, L54R, E55A, I96L
B9: 抗CD300c单克隆抗体 CL6 (antibody, from another filing, V domains shown)
VH: EVQLLESGGGLVQPGGSLRLSCAASGFTFSSYGMHWVRQAPGKGLEWVSAISGSGGSTYYADSVKGRFTISRDNSKNTLYLQMNSLRAEDTAVYYCAVSGAGRGFFDYWGQGTLVTVSS
VL: QSVLTQPPSASGTPGQRVTISCSGSSSNIGSNYVYWYQQLPGTAPKLLIYEDNKRPSGVPDRFSGSKSGTSASLAISGLRSEDEADYYCSSYTSSSTVIFGGGTKLTVL
B10: 抗CD300c单克隆抗体 SK12 (antibody, from another filing)
chain: RVQLLESGGGLVQPGGSLRLSCAASGFTFSSYAMHWVRQAPGKGLEWVSAISGSGGDTYHADSVKGRFTISRDNSKNTLYLQMNSLRAEDTAVYYCTRGLSGFDYWGQGTLVTVSSGGGGSGGGGSGGGGSEIVLTQSPGTLSLSPGERATLSCRASQSISSYLNWYQQKPGQAPRLLIYDASNRAPGIPDRFSGSGSGTDFTLTISRLEPEDFAVYYCQQSYSIPITFGQGTKVEIK
B11: 抗CD300c单克隆抗体 CL5 (antibody, from another filing, V domains shown)
VH: RVQLLESGGGLVQPGGSLRLSCAASGFTFSSYAMHWVRQAPGKGLEWVSSISGGGYGTYYADSVKGRFTISRDNSKNTLYLQMNSLRAEDTAVYYCARSTVWAFDIWGQGTLVTVSS
VL: QSVLTQPPSASGTPGQRVTISCSGNNIGSKSVHWYQQLPGTAPKLLIYDVSKRPSERPDRFSGSKSGTSASLAISDLRSEDEADYYCQSFDSSGTWIFGGGTKLTVL
B12: 抗CD300c单克隆抗体 CL4 (antibody, from another filing, V domains shown)
VH: RVQLLESGGGLVQPGGSLRLSCAASGFTFGSNYMSWVRQAPGKGLEWVSTISGSGTSTYYADSLKGRFTISRDNSKNTLYLQMNSLRAEDTAVYYCARGMWGMDVWGQGTLVTVSS
VL: QSVLTQPPSASGTPGQRVTISCTGKHRHTVNWYQLLPGTAPKLLIYLDSERPSGVPDRFSGSKSGTSASLAISGLRSEDEADYYCQSYDSSSVVFGGGTKLTVL
B13: 抗CD300c单克隆抗体 CK1 (antibody, from another filing, V domains shown)
VH: EVQLLESGGGLVQPGGSLRLSCAASGFTFSRYAMTWVRQAPGKGLEWVSSMSGTGGTTYYADSVKGRFTISRDNSKNTLYLQMNSLRAEDTAVYYCARGAYGFDHWGQGTLVTVSS
VL: B6 VL with Q24R, D28S, T30G, S53N, Y92S, S93A, T94I, I96Y
B14: 抗CD300c单克隆抗体 SL18 (antibody, from another filing)
chain: RVQLLESGGGLVQPGGSLRLSCAASGFTFSDYHMHWVRQAPGKGLEWVSTISSSGGYTYYAESVKSRFTISRDNSKNTLYLQMNSLRAEDTAVYYCARSIRLPLDYWGQGTLVTVSSSGGGSGGGGSGGGGSQSVLTQPPSASGTPGQRVTISCSGNNIGSKGVHWYQQLPGTAPKLLIYEDSKRPSGVRDRFSGSKSGTSASLAISGLRSEDEADYYCQSYDSTKGVVFGGGTKLTVL
B15: 抗CD300c单克隆抗体 SK13 (antibody, from another filing, V domains shown)
VH: RVQLLESGGGLVQPGGSLRLSCAASGFTFSDYAMSWVRQAPGKGLEWVSSISSSSSYIYYTDSVKGRFTISRDNSKNTLYLQMNSLRAEDTAVYYCARGGYGFDYWGQGTLVTVSS
VL: EIVLTQSPGTLSLSPGERATLSCRASQSISSYLNWYQQKPGQAPRLLIYSASSRPQGIPDRFSGSGSGTDFTLTISRLEPEDFAVYYCQQYDDLPFTFGQGTKVEIK
B16: 抗CD300c单克隆抗体 SK16 (antibody, from another filing, V domains shown)
VH: RVQLLESGGGLVQPGGSLRLSCAASGFTFSSYAMSWVRQAPGKGLEWVSAINGSGGSTLYADSVKGRFTISRDNSKNTLYLQMNSLRAEDTAVYYCARGVSGFDSWGQGTLVTVSS
VL: B6 VL with Q24R, A25I, D28S, T30S, N31S, S53L, L54R, E55A, S93K
B17: 抗CD300c单克隆抗体 SK17 (antibody, from another filing, V domains shown)
VH: EVQLLESGGGLVQPGGSLRLSCAASGFTFSSYYWSWVRQAPGKGLEWVSTITGSGGSTDYANSVKGRFTISRDNSKNTLYLQMNSLRAEDTAVYYCATGGGIFDYWGQGTLVTVSS
VL: B6 VL with D28T, T30S, S53N, L54R, E55A, S91Y, Y92N, T94Y, I96P, T97S

Positions count from the first letter of the chain named.

The target of the first assay is T1, CD300c overexpressed on the surface of 293T cells and THP-1 cells. The experiment in a line: flow cytometry (FACS binding) on THP-1 cells overexpressing CD300c, FITC anti-human IgG (H+L), MFI. (In flow cytometry, cells or beads pass a laser one at a time.)
One may read the EC50 as the concentration at which the effect is half-maximal. The low end stands for an effect from little substance, the high end for a need for much substance. Molecule B1 came in with a concentration giving a half-maximal response (EC50) of 2.6 nM. This lies in the single-digit nanomolar range.

A further assay shares this target. Kind of assay: flow cytometry (FACS binding) on 293T cells overexpressing CD300c, FITC anti-human IgG (H+L), MFI.
The molecule B1 returned an EC50 of 2.7 nM.

For another assay, the target named is T2, CD300c抗原(11832-H08H，义翘神州). The experiment in a line: binding ELISA, CD300c antigen coated at 8 μg/mL, HRP anti-Fc IgG. Background: In an ELISA, binding on a coated surface is turned into a signal by an enzyme label.
B2: the EC50 was 0.065 µg/mL.

B3 displayed an EC50 of 0.793 µg/mL.

Regarding B1, the EC50 stood at 0.047 µg/mL.

B4: the EC50 was determined as 0.094 µg/mL.

For B5, the EC50 turned out to be 0.039 µg/mL.

B6 displayed an EC50 of 14.7 µg/mL.

For the molecule B7, the EC50 came to 0.033 µg/mL.

Consider B8, for which the concentration for a half-maximal effect (EC50) is 0.052 µg/mL.

B9 came in with an EC50 of 0.148 µg/mL.

B10 showed an EC50 of 0.067 µg/mL. Against the preceding molecule, the EC50 is about 2.2-fold lower.

As for B11, the EC50 was determined as 0.032 µg/mL.

The molecule B12 showed an EC50 of 0.031 µg/mL.

In turn, B13 gave an EC50 of 0.056 µg/mL.

In the case of B14, the concentration for a half-maximal effect (EC50) was found to be 0.17 µg/mL.

B15 showed a 50% effective concentration (EC50) of 0.044 µg/mL.

Regarding B16, the EC50 came out at 2.42 µg/mL.

As to B17, the EC50 stood at 0.054 µg/mL.

For the next assay, the target named is T3, 小鼠CD300c抗原 (小鼠 (mouse)). Kind of assay: cell-based or functional assay.
In the case of B1, the 癌细胞增殖抑制作用 (CT26 mouse colorectal cancer cells, CCK-8, 10 μg/mL antibody, 5 days) was 66 %.

As to B5, the 癌细胞增殖抑制作用 (CT26 mouse colorectal cancer cells, CCK-8, 10 μg/mL antibody, 5 days) was 15 %.

On to B14, for which the 癌细胞增殖抑制作用 (CT26 mouse colorectal cancer cells, CCK-8, 10 μg/mL antibody, 5 days) was 38 %.

For another assay, the target named is T2, CD300c抗原(11832-H08H，义翘神州). The experiment in a line: SPR, CD300c immobilised on CM5 chip (399.2 RU), CL7 0-6.25 μg/mL as analyte. For orientation: In SPR one partner is held on a chip, and binding of the other changes the refractive index at the surface.
As usually defined, the Kd is the constant that tells how readily two partners part at equilibrium. A low value points to tighter binding. As to B1, the dissociation constant Kd amounted to 0.52 nM.
